Test results from paper PMC8575775, “Structural basis of the interaction between SETD2 methyltransferase and hnRNP L paralogs for governing co-transcriptional splicing” (Nature Communications, 2021).
Changes are numbered by the printed parent chain. “And” between values parts separate entries of the source, which are not always exact repeats. Identical values can stand only once. Ends that are not written are not given here.

Assays:
hnRNP L Y257A = target: T1, hnRNP L Y257A (Homo sapiens, UniProt P14866, Y257A); assay: ITC with hnRNP L RRM2 Y257A mutant; type: binding; conditions: ITC 20 °C; N.D. = No detectable interaction under the experiment conditions
T1 construct: made in house; host or cells: Escherichia coli BL21 (DE3)
T1 sequence (P14866 189-286 Y257A): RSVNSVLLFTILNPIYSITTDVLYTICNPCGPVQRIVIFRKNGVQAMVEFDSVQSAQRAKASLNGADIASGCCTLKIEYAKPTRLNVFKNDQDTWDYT
Procedure: (§1) The hnRNP L_RRM2 fragment (residues189-286) was amplified from the human brain cDNA library and cloned into a modified pET28a (Novagen) vector without a thrombin protease cleavage site (termed p28a). All the mutants were generated using a MutantBEST kit (Takara) and verified via DNA sequencing. All the proteins were expressed in Escherichia coli BL21 (DE3) cells. The cells were cultured at 37 °C in LB medium, until the OD600 reached about 0.8. Then the proteins were induced with 0.2 mM isopropyl β-D-1-thiogalactopyranoside (IPTG). After induction at 16 °C for 24 h, the cells were harvested and lysed by sonication in buffer A (20 mM Tris-HCl, pH 7.8, 1 M NaCl). Proteins were first purified by Ni-NTA agarose beads and further purified by size-exclusion chromatography on a Hiload 16/60 Superdex 75 column (GE Healthcare) in buffer A. Purified proteins were dialyzed with Buffer B (20 mM Tris-HCl pH 7.8, 150 mM NaCl) and concentrated for subsequent analysis.
(§2) Isothermal titration calorimetry (ITC) assays were performed at 20 °C by using a Microcal PEAQ-ITC instrument (Malvern). We conducted the ITC experiments using SETD2 peptides for titration into hnRNP L and hnRNP LL proteins. […] The integrated heat data were analyzed using a one-site binding model by MicroCal PEAQ 1.0.0.1259-ITC Analysis Software provided by the manufacturer.

PTB RRM2 (PTB1) = target: T2, PTB RRM2 (PTB1) (Homo sapiens, UniProt P26599); assay: ITC with PTB RRM2; type: binding; conditions: ITC 20 °C; N.D. = No detectable interaction under the experiment conditions
T2 construct: made in house; host or cells: Escherichia coli BL21 (DE3)
T2 sequence (P26599 184-260 limits assumed): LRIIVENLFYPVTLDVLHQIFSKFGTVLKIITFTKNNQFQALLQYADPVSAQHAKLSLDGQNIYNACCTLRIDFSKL

hnRNP L RRM2 = target: T3, hnRNP L RRM2 (Homo sapiens, UniProt P14866); assay: ITC of SETD2 peptides with hnRNP L RRM2; type: binding; conditions: ITC 20 °C, N.D. = No detectable interaction under the experiment conditions
T3 construct: made in house; host or cells: Escherichia coli BL21 (DE3)
T3 sequence (P14866 189-286): T1 sequence (P14866 189-286 Y257A) with A69Y
Procedure: as §1, §2

hnRNP LL RRM2 [1] = target: T4, hnRNP LL RRM2 (human, UniProt Q8WVV9 166-268); assay: ITC; SETD2 peptide (about 600 µM, syringe) titrated into the protein (about 50 µM, sample pool); 20 °C; MicroCal PEAQ-ITC; one-site binding model; three independent titrations; conditions: both partners purified
T4 construct: heterogeneous nuclear ribonucleoprotein L-like, human, RRM2 domain; also called hnRNP LL^WT; source: E. coli BL21 (DE3), purified (Ni-NTA, size-exclusion chromatography)
T4 sequence: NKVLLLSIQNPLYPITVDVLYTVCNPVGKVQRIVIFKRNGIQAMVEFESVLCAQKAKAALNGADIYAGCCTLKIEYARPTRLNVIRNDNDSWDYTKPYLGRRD

[2] = target: T5, hnRNP L RRM2 (residues 189-286) (human); assay: as above; conditions: both partners purified
T5 construct: heterogeneous nuclear ribonucleoprotein L, human, RRM2 fragment residues 189-286; also called hnRNP L^WT; source: E. coli BL21 (DE3), purified (Ni-NTA, size-exclusion chromatography)
T5 chain: T1 sequence (P14866 189-286 Y257A) with A69Y

hnRNP L^I214A RRM2 = target: T6, hnRNP L^I214A RRM2 (human, UniProt P14866 189-286, I214A); assay: as above; conditions: both partners purified
T6 construct: heterogeneous nuclear ribonucleoprotein L, human, RRM2 fragment residues 189-286 as Dm1, with I214A; source: E. coli BL21 (DE3), purified (Ni-NTA, size-exclusion chromatography)
T6 sequence (looked up): T1 sequence (P14866 189-286 Y257A) with I26A, A69Y

hnRNP L^I256A RRM2 = target: T7, hnRNP L^I256A RRM2 (human, UniProt P14866 189-286, I256A); assay: as above; conditions: both partners purified
T7 construct: heterogeneous nuclear ribonucleoprotein L, human, RRM2 fragment residues 189-286 as Dm1, with I256A; source: E. coli BL21 (DE3), purified (Ni-NTA, size-exclusion chromatography)
T7 sequence (looked up): T1 sequence (P14866 189-286 Y257A) with I68A, A69Y

hnRNP LL^V188I RRM2 = target: T8, hnRNP LL^V188I RRM2 (human, UniProt Q8WVV9 166-268, V188I); assay: as above; conditions: both partners purified
T8 construct: heterogeneous nuclear ribonucleoprotein L-like, human, RRM2 domain as Dm4, with V188I; source: E. coli BL21 (DE3), purified (Ni-NTA, size-exclusion chromatography)
T8 sequence: T4 sequence with V23I

hnRNP L^V210A RRM2 = target: T9, hnRNP L^V210A RRM2 (human, UniProt P14866 189-286, V210A); assay: as above; conditions: both partners purified
T9 construct: heterogeneous nuclear ribonucleoprotein L, human, RRM2 fragment residues 189-286 as Dm1, with V210A; source: E. coli BL21 (DE3), purified (Ni-NTA, size-exclusion chromatography)
T9 sequence (looked up): T1 sequence (P14866 189-286 Y257A) with V22A, A69Y

hnRNP L^L263A RRM2 [3] = target: T10, hnRNP L^L263A RRM2 (human, UniProt P14866 189-286, L263A); assay: as above; conditions: both partners purified
T10 construct: heterogeneous nuclear ribonucleoprotein L, human, RRM2 fragment residues 189-286 as Dm1, with L263A; source: E. coli BL21 (DE3), purified (Ni-NTA, size-exclusion chromatography)
T10 sequence (looked up): T1 sequence (P14866 189-286 Y257A) with A69Y, L75A

hnRNP L^L263A RRM2 [4] = target: T10, hnRNP L^L263A RRM2; assay: as above; conditions: both partners purified; remark: listed apart in the source
[5] = target: T11, hnRNP L RRM2 (residues 189-286) (human, UniProt P14866 189-286); assay: ITC; SETD2 peptides (about 600 µM, syringe) titrated into hnRNP L / hnRNP LL proteins (about 50 µM, cell); 20 °C; Microcal PEAQ-ITC; one-site binding model; mean of three independent experiments; conditions: both partners purified
T11 construct: hnRNP L, human, RRM2 fragment, residues 189-286, amplified from a human brain cDNA library; Cloned into a modified pET28a vector without a thrombin cleavage site (p28a); also called hnRNP L RRM2 WT; source: E. coli BL21 (DE3), purified (Ni-NTA, size-exclusion chromatography)
T11 sequence (looked up): T1 sequence (P14866 189-286 Y257A) with A69Y

hnRNP LL RRM2 [6] = target: T12, hnRNP LL RRM2 (human, UniProt Q8WVV9 166-268); assay: as above; conditions: both partners purified
T12 construct: hnRNP LL, human, RRM2 domain; The methods describe only the cloning of hnRNP L RRM2; all proteins were expressed in E. coli; source: E. coli BL21 (DE3), purified (Ni-NTA, size-exclusion chromatography)
T12 sequence: T4 sequence

hnRNP L RRM2 I256A = target: T13, hnRNP L RRM2 I256A (human, UniProt P14866 189-286, I256A); assay: as above; conditions: both partners purified
T13 construct: hnRNP L, human, RRM2 fragment 189-286 with I256A; source: E. coli BL21 (DE3), purified (Ni-NTA, size-exclusion chromatography)
T13 sequence (looked up): T1 sequence (P14866 189-286 Y257A) with I68A, A69Y

“YPPGYPMQAYVDPSNPNAGKVLLPTP [SETD2^2167–2192]” was tested, and the “KD / interaction detected by ITC, in words” value (shortened to “KD / interaction detected”) (hnRNP L Y257A) was “completely abolished” and the “KD / interaction detected” value (PTB RRM2 (PTB1)) was “no detectable affinity”.

For “SETD2^2113–2140: adjacent SETD2 fragment, residues 2113–2140, used as non-binding control in ITC (RNKLSTEERRKLFEQEVAQREAQKQQQQ)”, the “KD / interaction detected” value (hnRNP L RRM2) was “could not detect any interaction” and the “KD / interaction detected” value (hnRNP L RRM2; listed as SETD2^2113-2140) was “No Binding”.

With SNPNAGKVLLPTP (source: synthetic peptide) [SETD2^2180-2192 peptide] the Kd (hnRNP LL RRM2 [1]) was 20.2 µM and 19.8 µM and 20.1 µM (2×), the “stoichiometry N” value (hnRNP LL RRM2 [1]) was 0.82 and 0.83 and 0.89 and the Kd [2] was 11.4 µM and 11.8 µM and 11.5 µM. For the same molecule, the “stoichiometry N” value [2] was 1.01 and 1 and 0.96.

For YPPGYPMQAYVDPSNPNAGKVLLPTP (peptide, UniProt Q9BYW2 2167-2192, looked up, source: synthetic peptide) [SETD2^2167-2192 peptide], the Kd (hnRNP L^I214A RRM2) was 15.6 µM and 16.3 µM and 16.2 µM and 16 µM, the “stoichiometry N” value (hnRNP L^I214A RRM2) was 1.01 and 1.05 and 1.18 and the Kd (hnRNP L^I256A RRM2) was 34.8 µM and 35.8 µM and 35 µM and 35.2 µM. The “stoichiometry N” value (hnRNP L^I256A RRM2) was 1.3 and 1.31 and 1.18, the Kd (hnRNP LL RRM2 [1]) was 8.58 µM and 8.04 µM and 8.19 µM and the “stoichiometry N” value (hnRNP LL RRM2 [1]) was 0.95 and 1.04. The Kd (hnRNP LL^V188I RRM2) was 6.16 µM and 6.44 µM and 6.3 µM, the “stoichiometry N” value (hnRNP LL^V188I RRM2) was 1.1 and 0.96 and 1.12 and the Kd [2] was 5.83 µM and 5.91 µM. For the same molecule, the “stoichiometry N” value [2] was 0.93 and 0.92, the Kd (hnRNP L^V210A RRM2) was 9.1 µM and 8.9 µM and 9.33 µM and 9.11 µM and the “stoichiometry N” value (hnRNP L^V210A RRM2) was 0.93 and 0.78 and 1.13. The Kd (hnRNP L^L263A RRM2 [3]) was 14.4 µM and 13.6 µM and 13.2 µM and 13.7 µM, the “stoichiometry N” value (hnRNP L^L263A RRM2 [3]) was 0.85 and 0.98 and 0.93 and the “stoichiometry N” value (hnRNP L^L263A RRM2 [4]) was 0.97.

B1: SETD2 2180–2192 peptide (peptide)
peptide: SNPNAGKVLLPTP
notes: also called truncated peptide; source: synthetic peptide
Work on B1 yielded a Kd [5] of 11.6 µM.

For YPPGYPMQAYVDPSNPNAGKVLLPTP (peptide, UniProt Q9BYW2 2167-2192, looked up, source: synthetic peptide) [SETD2 2167–2192 peptide], the Kd (hnRNP LL RRM2 [6]) was 8.27 µM, the Kd [5] was 5.86 µM and the “stoichiometry N” value [5] was 0.93. For the same molecule, the “fold decrease in binding against wild-type hnRNP L RRM2” value (hnRNP L RRM2 I256A) was 9 fold.
